Source: patent US20160319032A1 (MEDLMMUNE, published 2016)
Where two headings read alike, the source gives them in different places.

B1: sc 298 (antibody, V domains shown)
VH: QVQLVESGGGVVQPGRSLRLSCAASGFTFSSYGMHWVRQAPGKGLEWVAVIWYGGSNKYYADSVKGRFTISRDNSKNTLYLQMNSLRAEDTAVYYCARDLAARRGDYYYYGMDVWGQGTTVTVSS
VL: SSELTQDPVVSVALGQTVRITCQGDSLRSYYLSWYQQKPGQAPVLVIYGKNNRPSGIPDRFSGSNSGNTASLTITGAQAEDEADYYCNSRDSSGNHLFGGGTKLTVL
notes: lambda light chain
B2: sc 264 (antibody, V domains shown)
VH: QVQLQESGPGLVKPSQTLSLTCTVSGGSISSGGYYWSWIRQHPGKGLEWIGYIYYSGRTYNNPSLKSRVTISVDTSKNQFSLKLSSVTAADTAVYYCARVATGRGDYHFYAMDVWGQGTTVTVSS
VL: SYELTQPSSVSVSPGQTARITCSGDVLAKKSARWFHQKPGQAPVLVIYKDSERPSGIPERFSGSSSGTTVTLTISGAQVEDEAAYYCYSAADNNLVFGGGTKLTVL
notes: lambda light chain

What was measured:
[1] = target: T1, human αVβ6 integrin on cells (human, UniProt P06756 31-1048; P18564 22-788); experiment: cell-based or functional assay
T1 sequence (P06756 31-1048, chain 1 of 2): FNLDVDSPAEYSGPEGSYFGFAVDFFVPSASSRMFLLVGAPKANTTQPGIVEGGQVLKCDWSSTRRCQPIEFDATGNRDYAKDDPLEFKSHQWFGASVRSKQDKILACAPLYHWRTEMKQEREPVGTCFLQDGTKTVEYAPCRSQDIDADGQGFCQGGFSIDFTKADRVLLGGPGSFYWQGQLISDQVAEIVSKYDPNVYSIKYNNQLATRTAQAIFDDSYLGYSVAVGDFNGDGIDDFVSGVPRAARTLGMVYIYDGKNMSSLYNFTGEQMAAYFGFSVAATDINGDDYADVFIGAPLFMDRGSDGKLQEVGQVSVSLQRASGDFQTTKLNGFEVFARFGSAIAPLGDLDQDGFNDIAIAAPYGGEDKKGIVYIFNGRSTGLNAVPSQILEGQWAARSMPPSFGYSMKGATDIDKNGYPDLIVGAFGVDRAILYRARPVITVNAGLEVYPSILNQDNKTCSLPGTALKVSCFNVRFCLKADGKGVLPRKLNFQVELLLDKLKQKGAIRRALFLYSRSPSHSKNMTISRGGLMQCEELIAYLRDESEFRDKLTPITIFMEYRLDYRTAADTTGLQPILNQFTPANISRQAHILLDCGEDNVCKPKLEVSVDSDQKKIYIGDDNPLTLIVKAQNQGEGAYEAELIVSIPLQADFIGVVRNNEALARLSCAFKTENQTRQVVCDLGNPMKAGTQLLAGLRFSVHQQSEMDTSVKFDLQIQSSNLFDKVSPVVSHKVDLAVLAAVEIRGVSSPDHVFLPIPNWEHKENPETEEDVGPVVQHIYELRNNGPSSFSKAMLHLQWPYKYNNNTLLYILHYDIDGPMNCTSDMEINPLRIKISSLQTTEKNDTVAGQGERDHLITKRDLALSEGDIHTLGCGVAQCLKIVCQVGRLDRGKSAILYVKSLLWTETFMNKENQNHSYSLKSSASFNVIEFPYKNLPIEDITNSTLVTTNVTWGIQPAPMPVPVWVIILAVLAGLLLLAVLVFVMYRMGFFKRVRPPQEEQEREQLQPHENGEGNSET
T1 sequence (P18564 22-788, chain 2 of 2): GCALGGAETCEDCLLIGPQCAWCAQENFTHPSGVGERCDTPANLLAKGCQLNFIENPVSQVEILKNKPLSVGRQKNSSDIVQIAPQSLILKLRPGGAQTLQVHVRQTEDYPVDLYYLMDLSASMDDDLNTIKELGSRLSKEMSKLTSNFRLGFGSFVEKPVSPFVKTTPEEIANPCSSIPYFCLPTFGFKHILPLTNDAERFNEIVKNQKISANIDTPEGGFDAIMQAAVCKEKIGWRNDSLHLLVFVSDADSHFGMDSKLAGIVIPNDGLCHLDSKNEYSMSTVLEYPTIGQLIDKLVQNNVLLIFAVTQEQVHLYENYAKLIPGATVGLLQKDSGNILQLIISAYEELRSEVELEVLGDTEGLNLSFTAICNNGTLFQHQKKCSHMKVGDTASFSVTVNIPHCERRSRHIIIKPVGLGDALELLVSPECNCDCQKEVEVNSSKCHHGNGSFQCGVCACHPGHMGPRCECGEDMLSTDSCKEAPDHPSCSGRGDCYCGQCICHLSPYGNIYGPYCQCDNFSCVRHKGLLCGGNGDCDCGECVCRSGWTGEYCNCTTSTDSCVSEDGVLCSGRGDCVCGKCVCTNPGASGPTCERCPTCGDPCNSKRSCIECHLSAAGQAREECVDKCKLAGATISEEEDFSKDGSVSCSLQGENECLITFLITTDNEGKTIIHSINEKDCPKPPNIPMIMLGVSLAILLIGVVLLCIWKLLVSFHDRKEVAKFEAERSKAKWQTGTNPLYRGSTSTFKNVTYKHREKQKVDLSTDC

[2] = target: T1, human αVβ6 integrin on cells; experiment: cell-based or functional assay; remark: listed apart in the source
[3] = target: human αV on parental A375M cells (αVβ3 and αVβ5 integrins) (human, UniProt P06756 31-1048); experiment: cell-based or functional assay
Chain of human αV on parental A375M cells (αVβ3 and αVβ5 integrins) (P06756 31-1048 A375M, form in doubt): as the sequence (P06756 31-1048, chain 1 of 2) above, with A345M counted along it

[4] = target: T2, α4β1 integrin on J6.77 cells (UniProt P13612 34-1032; P05556 21-798); experiment: cell-based or functional assay
[5] = target: T3, α5β1 integrin on K562 cells (UniProt P08648 42-1049; P05556 21-798); experiment: cell-based or functional assay
T3 sequence (P08648 42-1049, chain 1 of 2): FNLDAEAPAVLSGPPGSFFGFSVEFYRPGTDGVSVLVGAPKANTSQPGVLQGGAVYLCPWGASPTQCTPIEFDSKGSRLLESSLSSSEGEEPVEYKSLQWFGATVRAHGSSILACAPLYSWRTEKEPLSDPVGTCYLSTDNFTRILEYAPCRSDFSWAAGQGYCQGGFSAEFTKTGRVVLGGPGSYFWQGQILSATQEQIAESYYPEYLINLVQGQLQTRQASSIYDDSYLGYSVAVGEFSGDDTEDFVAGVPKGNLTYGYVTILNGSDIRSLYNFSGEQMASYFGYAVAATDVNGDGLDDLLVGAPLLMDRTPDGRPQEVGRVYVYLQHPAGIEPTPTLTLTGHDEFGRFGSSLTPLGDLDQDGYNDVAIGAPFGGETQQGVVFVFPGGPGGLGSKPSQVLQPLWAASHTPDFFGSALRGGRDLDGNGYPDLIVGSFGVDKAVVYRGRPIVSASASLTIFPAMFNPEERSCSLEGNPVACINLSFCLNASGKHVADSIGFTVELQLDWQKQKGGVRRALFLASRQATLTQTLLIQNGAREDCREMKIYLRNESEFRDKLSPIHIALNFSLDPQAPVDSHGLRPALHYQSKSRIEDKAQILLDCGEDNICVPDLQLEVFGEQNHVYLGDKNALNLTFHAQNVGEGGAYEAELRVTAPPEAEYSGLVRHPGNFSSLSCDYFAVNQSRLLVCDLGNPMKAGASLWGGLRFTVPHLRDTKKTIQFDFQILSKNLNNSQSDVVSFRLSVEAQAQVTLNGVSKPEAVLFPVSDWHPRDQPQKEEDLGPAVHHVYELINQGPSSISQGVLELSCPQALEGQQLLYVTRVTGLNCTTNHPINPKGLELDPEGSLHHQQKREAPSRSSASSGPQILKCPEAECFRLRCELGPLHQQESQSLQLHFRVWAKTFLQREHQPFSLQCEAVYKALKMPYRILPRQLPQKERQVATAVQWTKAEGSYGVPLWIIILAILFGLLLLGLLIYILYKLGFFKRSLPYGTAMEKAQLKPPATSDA
T3 sequence (P05556 21-798, chain 2 of 2): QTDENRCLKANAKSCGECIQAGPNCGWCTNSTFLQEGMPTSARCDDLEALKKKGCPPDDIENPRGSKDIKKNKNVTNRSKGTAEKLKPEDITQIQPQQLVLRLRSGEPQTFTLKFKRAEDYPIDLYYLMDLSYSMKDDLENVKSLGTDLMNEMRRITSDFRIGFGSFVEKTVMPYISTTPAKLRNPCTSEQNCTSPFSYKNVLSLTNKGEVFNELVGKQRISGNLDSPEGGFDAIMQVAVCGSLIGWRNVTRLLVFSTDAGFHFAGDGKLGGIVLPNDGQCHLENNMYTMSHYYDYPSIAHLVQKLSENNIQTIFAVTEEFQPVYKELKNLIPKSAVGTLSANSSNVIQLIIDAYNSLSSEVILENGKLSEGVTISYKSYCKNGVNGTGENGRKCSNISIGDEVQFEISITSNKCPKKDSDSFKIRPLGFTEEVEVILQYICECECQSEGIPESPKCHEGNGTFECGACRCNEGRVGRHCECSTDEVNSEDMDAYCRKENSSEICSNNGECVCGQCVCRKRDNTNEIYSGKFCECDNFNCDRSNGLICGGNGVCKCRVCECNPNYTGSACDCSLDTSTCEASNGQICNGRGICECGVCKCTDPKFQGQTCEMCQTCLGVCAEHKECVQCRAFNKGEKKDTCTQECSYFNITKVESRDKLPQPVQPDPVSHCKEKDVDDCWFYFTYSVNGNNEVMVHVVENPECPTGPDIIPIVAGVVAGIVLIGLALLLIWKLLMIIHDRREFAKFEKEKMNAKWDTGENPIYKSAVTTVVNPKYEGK

[6] = target: T1, human αVβ6 integrin on cells; experiment: cell-based or functional assay; remark: listed apart in the source
[7] = target: T4, mouse αV on transfected HEK-293 cells (mouse, UniProt P43406 31-1044); experiment: FACS, purified mAb, transfected HEK-293 (parental: 49)
T4 construct: whole, on cells; Transfected alone into human HEK-293 cells; also called Mouse alpha V
T4 sequence (P43406 31-1044): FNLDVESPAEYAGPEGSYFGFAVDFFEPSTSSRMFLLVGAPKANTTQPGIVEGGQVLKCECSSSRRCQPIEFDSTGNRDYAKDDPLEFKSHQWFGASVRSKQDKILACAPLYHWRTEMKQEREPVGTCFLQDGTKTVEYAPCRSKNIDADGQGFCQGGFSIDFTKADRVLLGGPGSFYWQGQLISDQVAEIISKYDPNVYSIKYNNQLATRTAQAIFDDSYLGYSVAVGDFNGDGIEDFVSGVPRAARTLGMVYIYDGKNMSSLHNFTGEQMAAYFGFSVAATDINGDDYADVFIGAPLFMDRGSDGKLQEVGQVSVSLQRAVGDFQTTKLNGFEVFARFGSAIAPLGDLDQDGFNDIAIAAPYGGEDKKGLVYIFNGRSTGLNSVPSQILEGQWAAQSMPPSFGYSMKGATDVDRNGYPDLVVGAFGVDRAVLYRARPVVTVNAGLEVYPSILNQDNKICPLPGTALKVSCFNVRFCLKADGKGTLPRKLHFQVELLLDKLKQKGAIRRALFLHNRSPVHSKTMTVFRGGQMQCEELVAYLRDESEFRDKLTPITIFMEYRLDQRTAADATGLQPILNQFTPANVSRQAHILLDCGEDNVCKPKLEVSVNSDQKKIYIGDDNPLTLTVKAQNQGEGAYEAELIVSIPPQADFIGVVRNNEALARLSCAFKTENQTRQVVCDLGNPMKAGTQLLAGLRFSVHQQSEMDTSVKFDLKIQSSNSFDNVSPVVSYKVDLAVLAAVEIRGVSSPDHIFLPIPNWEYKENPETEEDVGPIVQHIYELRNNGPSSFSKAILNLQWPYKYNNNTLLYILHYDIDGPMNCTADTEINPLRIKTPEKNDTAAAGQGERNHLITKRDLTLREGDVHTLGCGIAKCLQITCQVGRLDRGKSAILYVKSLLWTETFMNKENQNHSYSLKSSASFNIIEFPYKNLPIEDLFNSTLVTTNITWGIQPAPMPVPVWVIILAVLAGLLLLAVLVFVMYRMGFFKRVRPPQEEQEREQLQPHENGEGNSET

[8] = target: T1, human αVβ6 integrin on cells; experiment: FMAT, supernatant, HEK 293 cells stably overexpressing αVβ6
[9] = target: T2, α4β1 integrin on J6.77 cells; experiment: cell-based or functional assay; remark: listed apart in the source
[10] = target: T3, α5β1 integrin on K562 cells; experiment: cell-based or functional assay; remark: listed apart in the source
cynomolgus αVβ6 on cells [11] = target: T5, cynomolgus αVβ6 on cells (cynomolgus); experiment: FACS, purified mAb, transfected HEK-293 (parental: 74)
T5 construct: whole, on cells; also called macaque αVβ6; Mac AVB6

[12] = target: T4, mouse αV on transfected HEK-293 cells; experiment: as above
[13] = target: T6, cynomolgus αV on transfected HEK-293 cells (cynomolgus); experiment: as above
T6 construct: whole, on cells; Transfected alone into human HEK-293 cells; also called Cynomolgus alphaV

cynomolgus αVβ6 on cells [14] = target: T5, cynomolgus αVβ6 on cells; experiment: FACS, supernatant, HEK-293 transfected with cynomolgus αV and β6

Row | Binder | Assay 1 % Inhibition of adhesion [1] [%] | Assay 2 % Inhibition of adhesion [1] [%] | Average % Inhibition of adhesion [1] [%] | Estimated IC50, adhesion assay, n = 1 [2] [µg/mL] | Estimated IC50, adhesion assay, n = 2 [2] [µg/mL] | Estimated IC50, adhesion assay, n = 3 [2] [µg/mL] | Percent Inhibition of A375M adhesion to osteopontin peptide, 5 ug/ml [3] [%] | Percent Inhibition of J6.77 adhesion to CS-1 peptide, 5 ug/ml [4] [%] | Percent Inhibition of K562 adhesion to FN9-10, 5 ug/ml [5] [%] | Percent Internalization, 1 ug/mL [6] [%] | Percent Internalization, 10 ug/mL [6] [%] | percent of cells shifted [7] [%] | FMAT FL1XCount [8] | Percent Inhibition of J6.77 adhesion to CS-1 peptide, 5 ug/ml [9] [%] | % Inhibition of K562 adhesion to fibronectin [10] [%] | percent of cells shifted (cynomolgus αVβ6 on cells [11]) [%] | percent of cells shifted [12] [%] | percent of cells shifted [13] [%] | % Cells Shifted (cynomolgus αVβ6 on cells [14]) [%] | GeoMean (cynomolgus αVβ6 on cells [14])
1 | B1 | 98 | 102 | 100 | 0.029 | 0.025 | 0.033 | 9 | -7 | 2 | 26 | 28 | 45 | 218000 | – | – | – | – | – | – | –
2 | B2 | – | – | – | – | – | – | 3 | -8 | -4 | – | – | – | – | -30 | 3 | 54 | 71 | 70 | 55 | 66.4
